# Experimental data: patent US20070185028A1, “Compositions and methods for treatment of protein misfolding and protein aggregation diseases” (priority 2004, published 2007)
# “Also recorded” adds a separate entry of the source.
# How the values were obtained:
# transthyretin (TTR) = target: T1, transthyretin (TTR) (Homo sapiens, UniProt P02766); experiment: Transthyretin fibrillation ThT assay; type: biochemical; details: for effect on TTR fibril formation, overall: five αB crystallin peptides and control
# T1 construct: purchased Sigma-Aldrich
# Protocol: The effect of the five αB crystallin peptides ST, DR, HG, LT, and ER on TTR fibrillation was measured using the ThT fluorescence assay (FIG. 26). The formation and inhibition of TTR fibrils was qualitatively verified by fluorescence and bright-field microscopy. The concentration of the peptides was varied relative to TTR to establish a concentration curve. In addition, the effect of a control neuropeptide (AT1) with no TTR fibril inhibition activity was measured and compared to the effect of the αB crystallin peptides on TTR fibril formation. The ThT fluorescence of 16 μM TTR alone incubated at 37° C. for 4 hrs, increased from ˜15,000 to ˜45,000 RFU. Addition of 3.2 μM αB crystallin peptides, ST, DR, LT, and HG decreased the ThT fluorescence of TTR by 15-70%. In contrast, 3.2 μM ER had no effect on TTR fibril formation. Increasing the concentration of the ER peptide to 16 μM decreased the ThT fluorescence of TTR by 60%. The negative control peptide AT1 had no effect on TTR fibrillation even at a concentration as high as 160 μM. All five αB crystallin peptides inhibited TTR fibrillation at sub-stoichometric and stoichometric concentrations (3.2 μM and 16 μM).
# The Thioflavin T (ThT) fluorescence of TTR in the presence of varying concentrations of αB crystallin peptides and controls was measured. […] When the concentration of the peptides was increased to 16 μM (1:1::peptide:TTR), the αB crystallin peptides ST, DR, HG, LT and ER decreased the ThT fluorescence by 8-72%. When the concentration of the peptides was increased further to 80 μM ([…]), all of the five αB crystallin peptides ST, DR, HG, LT, and ER decreased the ThT fluorescence by 40-70%. […] The formation and inhibition of TTR fibrils was verified microscopically.
# Transthyretin fibrillation ThT assays were performed as described previously. Hurshman et al., Biochemistry 43:7365-81, 2004; O'Nuallain and Wetzel, Proc Natl Acad Sci USA 99:1485-90, 2002. Peptides were dissolved to 2 mM in 0.25% DMSO and diluted accordingly, while TTR was dissolved in 200 mM KCl, 2 mM EDTA, 5 mM PBS, 200 mM sodium acetate, pH 4.4. For the 5::peptide:TTR assay, 10 μL of 160 μM peptide was mixed with 10 μL of 32 μM TTR, and 1 μL of 1 mM ThT. For the 1:1::peptide:TTR assay, 10 μL of 32 μM peptide was mixed with 10 μL of 32 μM TTR and 1 μL of 1 mM ThT. For the 1:5::peptide:TTR assay, 10 μL of 6.4 μM peptide was mixed with 10 μL of 32 μM TTR and 1 μL of 1 mM ThT. ThT fluorescence was measured using a Perkin Elmer Victor^3 V plate reader. Assays were performed in 384-well fluorescence plates in duplicates or triplicates. Samples were incubated at 37° C. ThT fluorescence was measured continuously for 150 minutes. The effect of the peptides and APS was calculated as percentage fibril formation relative to TTR alone (100%) at the end of 150 minutes.
# βL crystallin = experiment: Chaperone assay, thermal aggregation of βL crystallin; type: biochemical; details: 1:10 target protein:peptide; light scattering 340 nm
# Protocol: Chaperone Assays. Chaperone assays of the five peptides were performed using previously established methods with minor modifications. Muchowski et al., J Mol Biol 289: 397-411, 1999. A 1:1 monomeric molar ratio of chaperone:target protein was determined to be the optimum ratio and all subsequent chaperone assays of the β3 mutants were performed in triplicate and at a 1:1 monomeric molar ratio of chaperone:target protein in a 96-well ELISA micro-titer plate. […] of the chaperone and βL crystallin were mixed in a total volume of 200 μl buffer (5 mM PBS, pH 7.0). Light scattering at λ=340 nm was measured using a Multiskan MCC/340 plate reader before heating (time=0). After the first reading, the plate was heated at 50° C. and readings were taken at fifteen minute intervals for one hour.
# The ability of the peptides to suppress the thermal aggregation of βL crystallin was measured spectrophotometrically as light scattering at λ=340 nm from solutions containing 1:10 monomeric molar ratio of target protein:peptide.
# [1] = as provided by manufacturer (Mimotopes); cited from earlier work
Sequence,"effect on TTR fibril formation, overall (transthyretin (TTR))",effect on the thermal aggregation of βL crystallin (ranking) (βL crystallin),"decrease in ThT fluorescence of TTR (transthyretin (TTR); 3.2 μM, 16 μM TTR, 37° C.)",Hydrophobicity [1],"effect on TTR fibril formation, overall (transthyretin (TTR); listed as HG)"
DRFSVNLDVKHFS,strong inhibition,identical and slightly lower than the HG peptide,,,
ERTIPITRE,modestly inhibited,identical and slightly lower than the HG peptide,no effect,,
FSVNLDVK [Peptide 38],,,,0.44,
HGKHEERQDE,,strongest effect,,,most effective inhibitor; also recorded: strong inhibition
LTITSSLS [Peptide 66],,,,0.7,
LTITSSLSSDGV,partially inhibited,identical and slightly lower than the HG peptide,,,
STSLSPFYLRPPSFLRAP,partially inhibited,weakest effect,,,
WIRRPFFP [Peptide 5],,,,0.88,
